In the Human Domainome abundance scans (Beltran et al. 2025):
± gives the uncertainty stated by the source.

B1: Homeobox protein cut-like 1, residues 941 to 1008; numbered along this chain, P39880 (parent)
chain: QEVDTIELTRQVKEKLAKNGICQRIFGEKVLGLSQGSVSDMLSRPKPWSKLTQKGREPFIRMQLWLNG

Variants of: B1
Experiment: abundance fitness (aPCA) (normalised: wild type 0, dead -1); higher = more abundant; growth selection in yeast, the domain comes from the species named
Details: Homo sapiens

**Q.** Which abundance fitness does the source give for QEVDTIELTIQVKEKLAKNGICQRIFGEKVLGLSQGSVSDMLSRPKPWSKLTQKGREPFIRMQLWLNG [R10I] here?
**A.** -0.301 ± 0.094

**Q.** With QEVDTIELTRQVKEKLAKNGICQRIFGEKVLGLSQGSTSDMLSRPKPWSKLTQKGREPFIRMQLWLNG [V38T] as the variant, how does the abundance fitness read?
**A.** 0.164 ± 0.08

**Q.** Which abundance fitness does the source give for QEVDTIELTRQVKEKLAKNGICQRIFGEKVLGLSQGSDSDMLSRPKPWSKLTQKGREPFIRMQLWLNG [V38D] here?
**A.** -0.188 ± 0.088

**Q.** With QEVDTIELTRQVKEKLAKNGICQRIFGEKVLGLSQGSVSDVLSRPKPWSKLTQKGREPFIRMQLWLNG [M41V] as the variant, how does the abundance fitness read?
**A.** -0.007 ± 0.045

**Q.** For QEVDTIELTRQVKEKLAKNGICQRIFGEKVLGLMQGSVSDMLSRPKPWSKLTQKGREPFIRMQLWLNG [S34M], which abundance fitness is on record?
**A.** -0.017 ± 0.07

**Q.** With QEVDTIELTRQVKEKLAKNGICQRIFGEKVLGLGQGSVSDMLSRPKPWSKLTQKGREPFIRMQLWLNG [S34G] as the variant, how does the abundance fitness read?
**A.** -0.132 ± 0.056

**Q.** Which abundance fitness does the source give for QEVDTIELTRQVKEKLAKNGICQRIFGEKVLGLSQGSVEDMLSRPKPWSKLTQKGREPFIRMQLWLNG [S39E] here?
**A.** 0.031 ± 0.07

**Q.** For QEVDTIELTRQVKEKLAKNGICQRIFGEKVLGLSQGSVSDMLSRPKPWSKLTQKGREPFIRMRLWLNG [Q63R], which abundance fitness is on record?
**A.** 0.012 ± 0.054

**Q.** For QEVDTIELTRQVKEKLAKNGICQRIFGEKVLGLSQGSVSDMLSRPKPWSKLTQKIREPFIRMQLWLNG [G55I], which abundance fitness is on record?
**A.** 0.093 ± 0.14

**Q.** Which abundance fitness does the source give for QEVDTIELTRQVKEKLAKNIICQRIFGEKVLGLSQGSVSDMLSRPKPWSKLTQKGREPFIRMQLWLNG [G20I] here?
**A.** -0.361 ± 0.11

**Q.** With QEVDTIELTRQVKEKLAKNPICQRIFGEKVLGLSQGSVSDMLSRPKPWSKLTQKGREPFIRMQLWLNG [G20P] as the variant, how does the abundance fitness read?
**A.** -0.141 ± 0.075

**Q.** For QEVDTIELTRQVKEKLTKNGICQRIFGEKVLGLSQGSVSDMLSRPKPWSKLTQKGREPFIRMQLWLNG [A17T], which abundance fitness is on record?
**A.** -0.163 ± 0.069

**Q.** Which abundance fitness does the source give for QEVDTIELTRQVKEKLAKNGICQRIFGEKVLQLSQGSVSDMLSRPKPWSKLTQKGREPFIRMQLWLNG [G32Q] here?
**A.** -0.138 ± 0.097

**Q.** Which abundance fitness does the source give for QEVDTIELTRQVKEKLAKNGICQRIFGEKVLHLSQGSVSDMLSRPKPWSKLTQKGREPFIRMQLWLNG [G32H] here?
**A.** -0.096 ± 0.096

**Q.** For QEVDTIELTRQVKEKLAKNGICQRIFGEKVLALSQGSVSDMLSRPKPWSKLTQKGREPFIRMQLWLNG [G32A], which abundance fitness is on record?
**A.** -0.096 ± 0.067

**Q.** For QEVDTIELTRQVKEKLAKNGICQRIFGEKVLGLSQGIVSDMLSRPKPWSKLTQKGREPFIRMQLWLNG [S37I], which abundance fitness is on record?
**A.** -0.076 ± 0.089

**Q.** For QEVDTIELTRQVKEKLAKNGICQRIFGEKVLGLSQGFVSDMLSRPKPWSKLTQKGREPFIRMQLWLNG [S37F], which abundance fitness is on record?
**A.** -0.014 ± 0.095

**Q.** With QEVDTIELTRQVKEKLAKNGICQRIFGEKVLGLSQGEVSDMLSRPKPWSKLTQKGREPFIRMQLWLNG [S37E] as the variant, how does the abundance fitness read?
**A.** 0.052 ± 0.1

**Q.** With QEVDTIELTRQVKEKLAKNGICQRIFGEKVLGLSQGSVSDMLSRPKPWSKLTQKGREPFIRMQLGLNG [W65G] as the variant, how does the abundance fitness read?
**A.** -1.01 ± 0.1

**Q.** For QEVDTIELTRQVKEKLAKNGICQRIFGEKVLGLSQGSVSDMLSRPKPWSKLTQKGREPFIRMQLILNG [W65I], which abundance fitness is on record?
**A.** -1.3 ± 0.21

**Q.** Which abundance fitness does the source give for QEVDTIELTRQVKEKLAKNGICQVIFGEKVLGLSQGSVSDMLSRPKPWSKLTQKGREPFIRMQLWLNG [R24V] here?
**A.** -0.204 ± 0.062

**Q.** For QEVDTIELTRQVKEKLAKNGICQRIFGEKVLGLSQGSVSDMLSRPKPWSKLTQKGREGFIRMQLWLNG [P58G], which abundance fitness is on record?
**A.** -0.201 ± 0.081

**Q.** With QEVDTIELTRQVKEKLAKNGISQRIFGEKVLGLSQGSVSDMLSRPKPWSKLTQKGREPFIRMQLWLNG [C22S] as the variant, how does the abundance fitness read?
**A.** 0.049 ± 0.057

**Q.** Which abundance fitness does the source give for QEVDTIELTRQVKEKLAKNGICQRIFGEKVLGLSQGSVSDMLSRPKPWSKLTQQGREPFIRMQLWLNG [K54Q] here?
**A.** -0.107 ± 0.076

**Q.** With QEVDTIELTRQVKEKLAKNGICQRIFGEKVLGLSQGSVSDMLSRPKPWSKLTQAGREPFIRMQLWLNG [K54A] as the variant, how does the abundance fitness read?
**A.** 0.011 ± 0.061

**Q.** For QEVDTIELTRQVKEKLAKNGICQRIFGEKVLGLSQGSVSDMLSRPKPWSKLTQGGREPFIRMQLWLNG [K54G], which abundance fitness is on record?
**A.** -0.223 ± 0.064

**Q.** Which abundance fitness does the source give for QEVDTIELTRQVKEKLAKNGICQRIFGEKVLGLSQGSVSDMLSRPKPWSKLTQRGREPFIRMQLWLNG [K54R] here?
**A.** -0.074 ± 0.048

**Q.** With QEVDTIELTRQVKEKLAKNGICQRIFGEKVLGLSQGSVSDMLSRPKPWSKLTMKGREPFIRMQLWLNG [Q53M] as the variant, how does the abundance fitness read?
**A.** -0.095 ± 0.076

**Q.** Which abundance fitness does the source give for QEVDTIELTRQVKEKLAKNGICQRIFGEIVLGLSQGSVSDMLSRPKPWSKLTQKGREPFIRMQLWLNG [K29I] here?
**A.** -0.57 ± 0.22

**Q.** With QEVDTIELTRRVKEKLAKNGICQRIFGEKVLGLSQGSVSDMLSRPKPWSKLTQKGREPFIRMQLWLNG [Q11R] as the variant, how does the abundance fitness read?
**A.** -0.084 ± 0.039

**Q.** For QEVDTIELHRQVKEKLAKNGICQRIFGEKVLGLSQGSVSDMLSRPKPWSKLTQKGREPFIRMQLWLNG [T9H], which abundance fitness is on record?
**A.** -0.142 ± 0.12

**Q.** With QEVDTIELLRQVKEKLAKNGICQRIFGEKVLGLSQGSVSDMLSRPKPWSKLTQKGREPFIRMQLWLNG [T9L] as the variant, how does the abundance fitness read?
**A.** -0.405 ± 0.046

**Q.** For QEVDTIELTRQVKEKLAKNGICQRIFMEKVLGLSQGSVSDMLSRPKPWSKLTQKGREPFIRMQLWLNG [G27M], which abundance fitness is on record?
**A.** -0.208 ± 0.071

**Q.** With QEVDTIELTRQVKEKLAKNGICQRIFGEKVLGLSQGSVSSMLSRPKPWSKLTQKGREPFIRMQLWLNG [D40S] as the variant, how does the abundance fitness read?
**A.** -0.127 ± 0.052

**Q.** For QEVDTIELTRQVKEKLAKNGICQRIFGEKVLGLSQGSVSWMLSRPKPWSKLTQKGREPFIRMQLWLNG [D40W], which abundance fitness is on record?
**A.** -0.155 ± 0.11

**Q.** With QEVDTIELTRQVKEKLAKIGICQRIFGEKVLGLSQGSVSDMLSRPKPWSKLTQKGREPFIRMQLWLNG [N19I] as the variant, how does the abundance fitness read?
**A.** 0.075 ± 0.12

**Q.** With QEVDTIELTRQVKEKLAKEGICQRIFGEKVLGLSQGSVSDMLSRPKPWSKLTQKGREPFIRMQLWLNG [N19E] as the variant, how does the abundance fitness read?
**A.** 0.098 ± 0.059

**Q.** For TEVDTIELTRQVKEKLAKNGICQRIFGEKVLGLSQGSVSDMLSRPKPWSKLTQKGREPFIRMQLWLNG [Q1T], which abundance fitness is on record?
**A.** -0.038 ± 0.076

**Q.** For EEVDTIELTRQVKEKLAKNGICQRIFGEKVLGLSQGSVSDMLSRPKPWSKLTQKGREPFIRMQLWLNG [Q1E], which abundance fitness is on record?
**A.** 0.214 ± 0.091

**Q.** With CEVDTIELTRQVKEKLAKNGICQRIFGEKVLGLSQGSVSDMLSRPKPWSKLTQKGREPFIRMQLWLNG [Q1C] as the variant, how does the abundance fitness read?
**A.** -0.062 ± 0.13
